Assay results published in the Human Domainome abundance scans (Beltran et al. 2025).
± gives the uncertainty stated by the source.

B1: Friend leukemia integration 1 transcription factor, residues 116 to 197; numbered along this chain, Q01543 (parent)
chain: NMTTNERRVIVPADPTLWTQEHVRQWLEWAIKEYSLMEIDTSFFQNMDGKELCKMNKEDFLRATTLYNTEVLLSHLSYLRES

Variants of: B1
Test: abundance fitness (aPCA) (normalised: wild type 0, dead -1); higher = more abundant; growth selection in yeast, the domain comes from the species named
Details: Homo sapiens

NMTTNERRVIVPADPTLWTQEHVRQWLEWAIKEYSLMEIDTSFNQNMDGKELCKMNKEDFLRATTLYNTEVLLSHLSYLRES [F44N] and NMTTNERRVIVPADPTLWTQEHVRQWLEWAIKEYSLMEIDTSFDQNMDGKELCKMNKEDFLRATTLYNTEVLLSHLSYLRES [F44D] are within error of each other in abundance fitness: -0.875 ± 0.23 for the first, -0.914 ± 0.2 for the second.

First: NMTTNERRVIVPADPTLWTQEHVRQWLEWAIKEYSLMEIDTSFSQNMDGKELCKMNKEDFLRATTLYNTEVLLSHLSYLRES [F44S]
Second: NMTTNERRVIVPADPTLWTQEHVRQWLEWAIKEYSLMEIDTSFPQNMDGKELCKMNKEDFLRATTLYNTEVLLSHLSYLRES [F44P]
The abundance fitness of the first is higher: -0.499 ± 0.059 for the first, -0.744 ± 0.11 for the second.

Going from NMTTNERRVIVPADPTLWTQEHVRQWLEWAIKEYSLMEIDTSFWQNMDGKELCKMNKEDFLRATTLYNTEVLLSHLSYLRES [F44W] to NMTTNERRVIVPADPTLWTQEHVRQWLEWAIKEYSLMEIDTSFTQNMDGKELCKMNKEDFLRATTLYNTEVLLSHLSYLRES [F44T], the abundance fitness falls from -0.13 ± 0.044 to -0.453 ± 0.067.

First: NMTTNERRVIVPADPTLWTQEHVRQWLEWAIKEYSLMEIDTSFQQNMDGKELCKMNKEDFLRATTLYNTEVLLSHLSYLRES [F44Q]
Second: NMTTNERRVIVPADPTLWTQEHVRQWLEWAIKEYSLMEIDTSFVQNMDGKELCKMNKEDFLRATTLYNTEVLLSHLSYLRES [F44V]
The abundance fitness of the first is lower: -0.96 ± 0.18 for the first, -0.21 ± 0.039 for the second.

Going from NMTTNERRVIVPADPTLWTQEHVRQWLEWAIKEYSLMEIDTSFIQNMDGKELCKMNKEDFLRATTLYNTEVLLSHLSYLRES [F44I] to NMTTNERRVIVPADPTLWTQEHVRQWLEWAIKEYSLMEIDTSFHQNMDGKELCKMNKEDFLRATTLYNTEVLLSHLSYLRES [F44H], the abundance fitness falls from -0.278 ± 0.083 to -0.884 ± 0.18.

NMTTNERRVIVPADPTLWTQEHVRQWLEWAIKEYSLMEIDTSFRQNMDGKELCKMNKEDFLRATTLYNTEVLLSHLSYLRES [F44R] and NMTTNERRVIVPADPTLWTQEHVRQWLEWAIKEYSLMEIDTSFEQNMDGKELCKMNKEDFLRATTLYNTEVLLSHLSYLRES [F44E] are within error of each other in abundance fitness: -1.05 ± 0.1 for the first, -0.991 ± 0.14 for the second.

Compared with NMTTNERRVIVPADPTLWTQEHVRQWLEWAIKEYSLMEIDTSFAQNMDGKELCKMNKEDFLRATTLYNTEVLLSHLSYLRES [F44A], NMTTNERRVIVPADPTLWTQEHVRQWLEWAIKEYSLMEIDTSFMQNMDGKELCKMNKEDFLRATTLYNTEVLLSHLSYLRES [F44M] is lower in abundance fitness: -0.095 ± 0.042 for the first, -0.331 ± 0.071 for the second.

Going from NMTTNERRVIVPADPTLWTQEHVRQWLEWAIKEYSLMEIDTSFLQNMDGKELCKMNKEDFLRATTLYNTEVLLSHLSYLRES [F44L] to NMTTNERRVIVPADPTLWTQEHVRQWLEWAIKEYSLMEIDTSFCQNMDGKELCKMNKEDFLRATTLYNTEVLLSHLSYLRES [F44C], the abundance fitness rises from -0.227 ± 0.04 to -0.117 ± 0.06.

First: NMTTNERRVIVPADPTLWTQEHVRQWLEWAIKEYSLMEIDTSFGQNMDGKELCKMNKEDFLRATTLYNTEVLLSHLSYLRES [F44G]
Second: NMTTNERRVIVPADPTLWTQEHVRQWLEWAIKEYSLMEIDTSTFQNMDGKELCKMNKEDFLRATTLYNTEVLLSHLSYLRES [F43T]
The abundance fitness of the first is lower: -0.637 ± 0.045 for the first, -0.11 ± 0.1 for the second.

NMTTNERRVIVPADPTLWTQEHVRQWLEWAIKEYSLMEIDTSSFQNMDGKELCKMNKEDFLRATTLYNTEVLLSHLSYLRES [F43S] and NMTTNERRVIVPADPTLWTQEHVRQWLEWAIKEYSLMEIDTSHFQNMDGKELCKMNKEDFLRATTLYNTEVLLSHLSYLRES [F43H] are within error of each other in abundance fitness: -0.037 ± 0.059 for the first, -0.167 ± 0.17 for the second.

NMTTNERRVIVPADPTLWTQEHVRQWLEWAIKEYSLMEIDTSVFQNMDGKELCKMNKEDFLRATTLYNTEVLLSHLSYLRES [F43V] and NMTTNERRVIVPADPTLWTQEHVRQWLEWAIKEYSLMEIDTSRFQNMDGKELCKMNKEDFLRATTLYNTEVLLSHLSYLRES [F43R] are within error of each other in abundance fitness: -0.118 ± 0.072 for the first, -0.091 ± 0.059 for the second.

Going from NMTTNERRVIVPADPTLWTQEHVRQWLEWAIKEYSLMEIDTSCFQNMDGKELCKMNKEDFLRATTLYNTEVLLSHLSYLRES [F43C] to NMTTNERRVIVPADPTLWTQEHVRQWLEWAIKEYSLMEIDTSPFQNMDGKELCKMNKEDFLRATTLYNTEVLLSHLSYLRES [F43P], the abundance fitness rises from -0.35 ± 0.2 to -0.052 ± 0.066.

NMTTNERRVIVPADPTLWTQEHVRQWLEWAIKEYSLMEIDTSLFQNMDGKELCKMNKEDFLRATTLYNTEVLLSHLSYLRES [F43L] and NMTTNERRVIVPADPTLWTQEHVRQWLEWAIKEYSLMEIDTSDFQNMDGKELCKMNKEDFLRATTLYNTEVLLSHLSYLRES [F43D] are within error of each other in abundance fitness: 0.077 ± 0.062 for the first, -0.175 ± 0.26 for the second.

NMTTNERRVIVPADPTLWTQEHVRQWLEWAIKEYSLMEIDTSKFQNMDGKELCKMNKEDFLRATTLYNTEVLLSHLSYLRES [F43K] and NMTTNERRVIVPADPTLWTQEHVRQWLEWAIKEYSLMEIDTSIFQNMDGKELCKMNKEDFLRATTLYNTEVLLSHLSYLRES [F43I] are within error of each other in abundance fitness: -0.118 ± 0.12 for the first, -0.164 ± 0.13 for the second.

NMTTNERRVIVPADPTLWTQEHVRQWLEWAIKEYSLMEIDTSQFQNMDGKELCKMNKEDFLRATTLYNTEVLLSHLSYLRES [F43Q] and NMTTNERRVIVPADPTLWTQEHVRQWLEWAIKEYSLMEIDTSMFQNMDGKELCKMNKEDFLRATTLYNTEVLLSHLSYLRES [F43M] are within error of each other in abundance fitness: 0.004 ± 0.074 for the first, -0.019 ± 0.091 for the second.

NMTTNERRVIVPADPTLWTQEHVRQWLEWAIKEYSLMEIDTSYFQNMDGKELCKMNKEDFLRATTLYNTEVLLSHLSYLRES [F43Y] and NMTTNERRVIVPADPTLWTQEHVRQWLEWAIKEYSLMEIDTSWFQNMDGKELCKMNKEDFLRATTLYNTEVLLSHLSYLRES [F43W] are within error of each other in abundance fitness: -0.013 ± 0.16 for the first, 0.002 ± 0.073 for the second.

NMTTNERRVIVPADPTLWTQEHVRQWLEWAIKEYSLMEIDTSGFQNMDGKELCKMNKEDFLRATTLYNTEVLLSHLSYLRES [F43G] and NMTTNERRVIVPADPTLWTQEHVRQWLEWAIKEYSLMEIDTSAFQNMDGKELCKMNKEDFLRATTLYNTEVLLSHLSYLRES [F43A] are within error of each other in abundance fitness: -0.204 ± 0.086 for the first, -0.063 ± 0.077 for the second.
